Biological target: Dlg1 (endogenous, mouse T cells) (mouse, UniProt Q811D0 1-905, limits assumed)
Assay: co-immunoprecipitation from activated mouse CD4+ T cell extracts, anti-Dlg1 IP, anti-Crtam immunoblot
Description: (A) Naïve CD4⁺ T cells from Crtam^{-/+} and Crtam^{-/-} mice were activated for the indicated times and cell extracts were immunoprecipitated with Abs against Scrib (upper panels) or Dlg1 (lower panels). Immune complexes were then analyzed by immunoblotting against Crtam. Data shown are representative of five independent experiments.
To assess the interaction of Crtam and PDZ-containing proteins, microbead purified CD4⁺ T cells were stimulated with plate-bound […] (10 μg/ml) and anti-CD28 (2 μg/ml) mAbs, whole cell extracts were immunoprecipitated using anti-Scrib antibody (K-21, Santa Cruz) and immune complexes analyzed by immunoblotting with anti-Crtam mAb (6E2, Genentech) or anti-Scrib Ab (H-300, Santa Cruz). The control experiment was performed using anti-Dlg1 Ab (H-60, Santa Cruz) for immunoprecipitation. […] Crtam-Flag was immunoprecipitated using anti-Flag M2-agarose beads (Sigma) and immune complexes were analyzed by immunoblotting with anti-GST (GE Healthcare Bio-Sciences) or anti-Crtam (6E2) mAbs.
To define the mechanism(s) by which Crtam regulates T cell morphology, we analyzed the ability of Scrib and Dlg1 to co-immunoprecipitate with Crtam in resting and activated T cells (FIG. 5A). Crtam was detected in Scrib, but not Dlg1, immunoprecipitates 14 h following TCR activation. […]

Sequence of Dlg1 (endogenous, mouse T cells) (Q811D0 whole entry): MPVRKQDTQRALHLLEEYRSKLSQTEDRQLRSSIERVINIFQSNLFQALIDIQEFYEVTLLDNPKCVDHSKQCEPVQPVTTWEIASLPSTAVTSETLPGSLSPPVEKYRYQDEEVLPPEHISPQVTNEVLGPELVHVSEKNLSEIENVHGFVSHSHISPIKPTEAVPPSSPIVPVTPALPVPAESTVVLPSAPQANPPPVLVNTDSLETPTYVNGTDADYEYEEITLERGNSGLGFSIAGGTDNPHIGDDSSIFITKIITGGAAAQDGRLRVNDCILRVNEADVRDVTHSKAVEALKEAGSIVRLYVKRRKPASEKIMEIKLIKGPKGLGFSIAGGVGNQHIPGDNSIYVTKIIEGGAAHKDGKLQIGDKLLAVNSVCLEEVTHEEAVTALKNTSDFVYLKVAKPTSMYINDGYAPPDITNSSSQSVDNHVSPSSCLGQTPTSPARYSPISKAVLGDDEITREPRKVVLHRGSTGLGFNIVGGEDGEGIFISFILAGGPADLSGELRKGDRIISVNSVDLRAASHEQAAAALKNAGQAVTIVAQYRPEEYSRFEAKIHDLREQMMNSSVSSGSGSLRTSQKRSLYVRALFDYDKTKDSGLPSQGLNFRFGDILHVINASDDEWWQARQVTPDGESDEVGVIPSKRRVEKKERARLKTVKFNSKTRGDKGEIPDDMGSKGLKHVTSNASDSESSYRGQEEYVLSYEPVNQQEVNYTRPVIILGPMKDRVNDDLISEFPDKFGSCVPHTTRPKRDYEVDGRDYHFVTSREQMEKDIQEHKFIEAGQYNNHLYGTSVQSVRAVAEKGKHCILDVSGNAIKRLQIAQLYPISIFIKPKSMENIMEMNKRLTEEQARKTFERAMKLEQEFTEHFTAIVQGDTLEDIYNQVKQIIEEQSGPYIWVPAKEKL

binding result: no binding
B1: mouse Crtam (endogenous, on activated mouse T cells) (receptor)
chain: AFLKMETVTVEEGQTLTLTCVTSQTKNVSLQWLAPSGFTIFLNQHPALKSSKYQLLHHSATQLSISVSNVTLREEGVYTCLHYGSSVKTKQVRVTVLVTPFQPTVEALVLRRQNGEKSVVLKCSTERSKPPPQITWLLGEGLEIYGELHHEFEADGKICNTSSTLIARAYGKNSTVHCIIQHEGLHGRKLVAPFQFEDLVADQETTSDAPEQSSLSSQALQQPTSTVSMMENSSIPETDKEEKEHATQDPGLSTASAQHTGLARRKSGILLLTLVSFLIFILFIIVQLFIMKLRKAHVVWKKESEISEQALESYRSRSNNEETSSQENSSQAPQSKRCMNYITQLYSGAKTKKSAQHWKLGGKHSRVPESIV
notes: Endogenous protein of mouse CD4+ or CD8+ T cells; In the co-immunoprecipitations it came from whole cell extracts; In flow cytometry and the Cadm1(ECD)-Fc assay it was on the cell surface; also called class-I MHC restricted T-cell associated molecule
